Experimental data: patent publication US20260250421A1 (BIOCYTOGEN PHARMACEUTICALS BEIJING, published 2026)
Where a chain is given by its changes, count along the chain named.

B1: 1A7 (antibody, human IgG1, V domains shown)
VH: QVQLVESGGGVVQPGRSLRLSCAASGFTFSNYGMHWVRQAPGKGLEWVAVIYYDGSNKFYADSVKGRFTISRDNSKNTLYLQMSSLRAEDTAVYYCARDVAPPGSRAEYFHHWGQGTLVTVSS
VL: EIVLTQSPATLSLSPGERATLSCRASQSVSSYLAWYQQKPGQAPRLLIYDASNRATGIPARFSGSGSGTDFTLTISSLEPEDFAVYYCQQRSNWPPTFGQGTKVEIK
notes: also called anti-PTK7 antibody 1A7
B2: 2D11 (antibody, V domains shown)
VH: B1 VH with N31S, Y52F, F59Y, S84N, A92S, P102A, H111Q, H112N
VL: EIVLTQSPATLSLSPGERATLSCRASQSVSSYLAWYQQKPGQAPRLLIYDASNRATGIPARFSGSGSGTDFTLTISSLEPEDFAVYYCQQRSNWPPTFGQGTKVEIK
notes: also called anti-PTK7 antibody 2D11
B3: 2F5 (antibody, V domains shown)
VH: B1 VH with A23V, V50I, F59Y, S84N, P102A, P103A, F110L
VL: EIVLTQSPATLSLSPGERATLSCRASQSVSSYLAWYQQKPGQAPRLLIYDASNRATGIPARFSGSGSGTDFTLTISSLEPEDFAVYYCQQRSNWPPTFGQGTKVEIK
notes: also called anti-PTK7 antibody 2F5
B4: 2A5 (antibody, V domains shown)
VH: B1 VH with E6Q, Y52W, S56R, F59Y, S84N, P103A, H111Q, H112N
VL: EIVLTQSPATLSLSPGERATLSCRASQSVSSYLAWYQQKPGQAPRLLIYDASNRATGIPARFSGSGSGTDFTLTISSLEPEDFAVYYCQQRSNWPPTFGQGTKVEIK
notes: also called anti-PTK7 antibody 2A5
B5: 1F2 (antibody, V domains shown)
VH: QVQLVQSGGGLVQPGGSLRLSCAASGFTFSRYEMNWVRQAPGKGLEWVSYINSIGSAINYADSVKGRFTISRDNAKNSLYLQMRSLRAEDTAVYYCVREDNWNPGYWGQGTLVTVSS
VL: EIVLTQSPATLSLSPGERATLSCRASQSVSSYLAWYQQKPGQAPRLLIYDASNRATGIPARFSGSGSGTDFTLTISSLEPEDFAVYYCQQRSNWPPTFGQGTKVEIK
notes: also called anti-PTK7 antibody 1F2
B6: 3C4 (antibody, V domains shown)
VH: QVQLEQSRAEVKKPGESLRISCKGSGYSFTSYWISWVRQMPGKGLEWMGRIDPSDSYTNYNPSFQGHVTISADKSISTAYLQWSSLKASDTAMYYCARRDGSYFDFDYWGQGTLVTVSS
VL: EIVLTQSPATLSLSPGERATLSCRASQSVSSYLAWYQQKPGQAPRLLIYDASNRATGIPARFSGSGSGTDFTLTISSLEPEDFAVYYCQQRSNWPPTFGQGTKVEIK
notes: also called anti-PTK7 antibody 3C4
B7: 3E6 (antibody, V domains shown)
VH: B6 VH with E5V, Q6E, R8G, K23R, N59K, N61S, S102D
VL: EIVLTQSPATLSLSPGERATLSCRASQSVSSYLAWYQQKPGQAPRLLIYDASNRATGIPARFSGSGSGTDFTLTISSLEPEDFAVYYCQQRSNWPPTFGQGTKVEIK
notes: also called anti-PTK7 antibody 3E6
B8: 1A11 (antibody, V domains shown)
VH: QVQLVQSGPGLVKPSETLSLTCTVSGGSINSYYWNWIRQPPGKGLEWIGYIYYSGSTNYNPSLKSRVTISVDTSKNQFSLKLSSVTAADTAVYYCARDPHDYIRGHFDLWGRGTLFTVSS
VL: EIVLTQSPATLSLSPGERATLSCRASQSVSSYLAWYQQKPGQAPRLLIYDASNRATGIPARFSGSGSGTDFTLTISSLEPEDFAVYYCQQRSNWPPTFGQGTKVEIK
notes: also called anti-PTK7 antibody 1A11

Target: T1, His-tagged dog PTK7 protein (dog, UniProt Q13308 31-703 (human entry))
T1 construct: also called dPTK7-His
T1 chain: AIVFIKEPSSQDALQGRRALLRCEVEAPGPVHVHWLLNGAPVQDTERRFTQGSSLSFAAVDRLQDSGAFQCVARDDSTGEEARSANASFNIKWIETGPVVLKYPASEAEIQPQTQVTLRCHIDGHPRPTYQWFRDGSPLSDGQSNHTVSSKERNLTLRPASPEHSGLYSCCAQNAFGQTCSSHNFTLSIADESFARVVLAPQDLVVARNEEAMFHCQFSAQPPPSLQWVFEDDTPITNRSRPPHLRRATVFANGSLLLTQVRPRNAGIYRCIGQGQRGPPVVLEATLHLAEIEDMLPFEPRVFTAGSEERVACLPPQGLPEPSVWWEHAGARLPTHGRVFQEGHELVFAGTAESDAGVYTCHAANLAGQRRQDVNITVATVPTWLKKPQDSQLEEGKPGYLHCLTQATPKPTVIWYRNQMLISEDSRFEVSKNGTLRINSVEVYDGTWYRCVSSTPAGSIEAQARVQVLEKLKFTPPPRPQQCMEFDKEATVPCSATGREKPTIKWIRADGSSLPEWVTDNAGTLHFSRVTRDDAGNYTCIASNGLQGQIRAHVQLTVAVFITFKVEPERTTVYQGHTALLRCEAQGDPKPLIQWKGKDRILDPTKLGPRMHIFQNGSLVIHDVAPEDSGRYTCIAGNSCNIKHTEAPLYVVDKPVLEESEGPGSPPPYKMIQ
Assay: SPR Biacore 8K, Ab on Protein A chip
Procedure: Purified anti-PTK7 antibodies were diluted to 1 μg/mL and then injected into the Biacore™ 8K biosensor at 10 μL/min for about 50 seconds to achieve a desired protein density (e.g., about 50 response units (RU)). The His-tagged PTK7 protein at a concentration of 200 nM or 0 nM was then injected at 30 μL/min for 180 seconds. Dissociation was monitored for 400 seconds. The chip was regenerated after the last injection of each titration with glycine (pH 2.0, 30 μL/min for 30 seconds).

Row | Binder | Kd | koff | kon
1 | B1 | 2.3 nM | 0.000133 s⁻¹ | 58000 M⁻¹ s⁻¹
2 | B2 | 0.898 nM | 5.47e-05 s⁻¹ | 60900 M⁻¹ s⁻¹
3 | B3 | 11.1 nM | 0.000563 s⁻¹ | 50700 M⁻¹ s⁻¹
4 | B4 | 3.43 nM | 0.000167 s⁻¹ | 48600 M⁻¹ s⁻¹
5 | B5 | 21.2 nM | 0.00927 s⁻¹ | 437000 M⁻¹ s⁻¹
6 | B6 | 8.48 nM | 0.00399 s⁻¹ | 471000 M⁻¹ s⁻¹
7 | B7 | 11.6 nM | 0.00171 s⁻¹ | 147000 M⁻¹ s⁻¹
8 | B8 | 14.5 nM | 0.00123 s⁻¹ | 84600 M⁻¹ s⁻¹

Target: T2, human PTK7 on human cancer cell lines (human, UniProt Q13308 31-1070)
T2 construct: Endogenous PTK7 of human tumour cell lines; also called PTK7 on A-431, NCI-H520, NCI-N87, SK-OV-3, BT-20, HCC1954, NCI-H226, NCI-H358, HCT116, PC-3, NCI-H292, NCI-H1975 cells
T2 sequence: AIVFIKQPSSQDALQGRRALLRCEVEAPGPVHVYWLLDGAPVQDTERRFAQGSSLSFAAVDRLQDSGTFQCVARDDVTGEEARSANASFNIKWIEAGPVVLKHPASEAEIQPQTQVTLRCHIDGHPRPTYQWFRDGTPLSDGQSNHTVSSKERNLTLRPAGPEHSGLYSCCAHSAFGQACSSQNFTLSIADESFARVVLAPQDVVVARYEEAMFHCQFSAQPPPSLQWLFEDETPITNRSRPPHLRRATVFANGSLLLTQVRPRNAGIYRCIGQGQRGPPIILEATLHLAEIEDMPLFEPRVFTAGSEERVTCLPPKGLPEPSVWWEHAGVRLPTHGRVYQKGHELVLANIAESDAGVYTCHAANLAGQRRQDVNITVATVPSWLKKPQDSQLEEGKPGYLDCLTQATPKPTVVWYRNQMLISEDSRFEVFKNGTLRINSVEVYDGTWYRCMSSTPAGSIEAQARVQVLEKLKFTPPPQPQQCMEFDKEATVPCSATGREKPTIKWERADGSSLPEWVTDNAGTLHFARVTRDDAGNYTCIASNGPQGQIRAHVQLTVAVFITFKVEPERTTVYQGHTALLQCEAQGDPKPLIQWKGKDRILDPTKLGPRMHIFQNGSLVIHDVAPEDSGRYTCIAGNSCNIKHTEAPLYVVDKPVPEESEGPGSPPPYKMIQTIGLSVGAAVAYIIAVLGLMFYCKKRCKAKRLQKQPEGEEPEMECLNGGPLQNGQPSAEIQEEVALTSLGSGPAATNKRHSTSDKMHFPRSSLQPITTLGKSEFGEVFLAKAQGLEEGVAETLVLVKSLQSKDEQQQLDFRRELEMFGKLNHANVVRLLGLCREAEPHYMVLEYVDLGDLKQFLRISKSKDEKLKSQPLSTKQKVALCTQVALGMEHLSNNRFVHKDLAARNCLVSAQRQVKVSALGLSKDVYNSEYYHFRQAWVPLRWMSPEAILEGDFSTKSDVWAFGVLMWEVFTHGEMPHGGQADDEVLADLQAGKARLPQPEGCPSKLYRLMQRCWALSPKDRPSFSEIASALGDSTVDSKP
Assay: flow cytometry, A-431 cells, Ab 5 ug/mL
Procedure: (§1) The binding activity of anti-PTK7 antibodies to cancer cell lines was verified by flow cytometry. […] Purified anti-PTK7 antibody with a concentration of 5 μg/mL was added to each well and was incubated at 4° C. for 30 minutes. […] The cells were collected, and the mean fluorescence intensity (MFI) was determined. Human IgG1 was used as ISO control.

Row | Binder | MFI
9 | B1 | 91100
10 | B2 | 295000
11 | B3 | 106000
12 | B4 | 173000
13 | B5 | 156000
14 | B6 | 186000
15 | B7 | 289000
16 | B8 | 247000

Target: T2, human PTK7 on human cancer cell lines
Assay: flow cytometry, HCC1954 cells, Ab 5 ug/mL
Procedure: as §1

Row | Binder | MFI
17 | B1 | 118000
18 | B2 | 211000
19 | B3 | 121000
20 | B4 | 179000
21 | B5 | 99100
22 | B6 | 187000
23 | B7 | 207000
24 | B8 | 172000
